T1: DmGS2 (Drosophila melanogaster, UniProt P20478)
T1 construct: gene Gs2; 367 residues per monomer modelled
T1 sequence (P20478 1-369): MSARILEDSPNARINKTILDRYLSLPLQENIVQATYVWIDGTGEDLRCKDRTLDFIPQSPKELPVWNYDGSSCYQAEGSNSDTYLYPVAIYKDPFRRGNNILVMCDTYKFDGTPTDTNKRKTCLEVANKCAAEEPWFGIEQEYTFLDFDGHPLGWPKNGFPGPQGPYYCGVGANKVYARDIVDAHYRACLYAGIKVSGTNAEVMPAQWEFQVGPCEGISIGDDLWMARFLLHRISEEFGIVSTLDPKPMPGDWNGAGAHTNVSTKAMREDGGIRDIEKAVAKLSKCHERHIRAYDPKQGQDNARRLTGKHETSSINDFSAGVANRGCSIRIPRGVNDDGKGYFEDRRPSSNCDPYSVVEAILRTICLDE


Legend:
[1] = target: T1, DmGS2; assay: X-ray crystal structure, […] Å; type: binding; conditions: active site; crystallised with ATP and MgCl2, ADP found in all 10 monomers
[2] = substrate: N; assay: purified protein; conditions: saturating glutamate, 12 mM ATP, 50 mM MgCl2, 50 mM imidazole-HCl pH 7.0, 37 °C
[3] = substrate: NC(=O)CC[C@H](N)C(=O)O; assay: purified protein; type: biochemical, Drosophila melanogaster; conditions: saturating hydroxylamine, 3 mM MnCl2, 0.4 mM ADP, 20 mM potassium arsenate, 40 mM imidazole pH 7.9, 37 °C
[4] = substrate: NO; assay: purified protein; type: biochemical, Drosophila melanogaster; conditions: saturating glutamine, 3 mM MnCl2, 0.4 mM ADP, 20 mM potassium arsenate, 40 mM imidazole pH 7.9, 37 °C
[5] = substrate: N[C@@H](CCC(=O)O)C(=O)O; assay: purified protein; type: biochemical, Drosophila melanogaster; conditions: saturating NH4Cl, 12 mM ATP, 50 mM MgCl2, 50 mM imidazole-HCl pH 7.0, 37 °C
[6] = target: the molecule itself; assay: AUC; sedimentation velocity, 20 °C, samples 500 μL at 1.0 mg/mL, absorbance at 280 nm, SEDFIT85
[7] = target: the molecule itself; assay: crystal structure; DmGS2 with ADP bound; protein 12 mg/mL in 20 mM Tris-HCl pH 7.9, 150 mM NaCl, 5 mM MgCl2, 5 mM ATP, 1 mM sodium 2-mercaptoethanesulphonate; hanging-drop vapor diffusion; 2.12 Å

| Molecule | X-ray crystal structure, 2.12 Å [1] | Km [2] | Vmax [2] | kcat [2] | kcat/Km [2] | Km [3] | Vmax [3] | kcat [3] | kcat/Km [3] | Km [4] | Vmax [4] | Km [5] | Vmax [5] | kcat [5] | kcat/Km [5] | stoichiometry N [6] | stoichiometry N [7] |
| --- | --- | --- | --- | --- | --- | --- | --- | --- | --- | --- | --- | --- | --- | --- | --- | --- | --- |
| Nc1ncnc2c1ncn2[C@@H]1O[C@H](COP(=O)(O)OP(=O)(O)O)[C@@H](O)[C@H]1O [ADP] | A structure was obtained for the DmGS2 decamer in complex with ADP | – | – | – | – | – | – | – | – | – | – | – | – | – | – | – | – |
| DmGS2 (Drosophila melanogaster; P214A) (protein, 367 residues per monomer modelled) MSARILEDSPNARINKTILDRYLSLPLQENIVQATYVWIDGTGEDLRCKDRTLDFIPQSPKELPVWNYDGSSCYQAEGSNSDTYLYPVAIYKDPFRRGNNILVMCDTYKFDGTPTDTNKRKTCLEVANKCAAEEPWFGIEQEYTFLDFDGHPLGWPKNGFPGPQGPYYCGVGANKVYARDIVDAHYRACLYAGIKVSGTNAEVMPAQWEFQVGACEGISIGDDLWMARFLLHRISEEFGIVSTLDPKPMPGDWNGAGAHTNVSTKAMREDGGIRDIEKAVAKLSKCHERHIRAYDPKQGQDNARRLTGKHETSSINDFSAGVANRGCSIRIPRGVNDDGKGYFEDRRPSSNCDPYSVVEAILRTICLDE | – | 0.11 ± 0.03 mM | 5.5 µM/min | 0.0183 s⁻¹ | 177 M⁻¹ s⁻¹ | 30.6 ± 6.1 mM | 150 µM/min | 0.5 ± 0.0333 s⁻¹ | 16.8 ± 2.33 M⁻¹ s⁻¹ | 1.5 ± 0.2 mM | 88 µM/min | 6.8 ± 2.2 mM | 10.6 µM/min | 0.0355 ± 0.00183 s⁻¹ | 6.33 ± 2.17 M⁻¹ s⁻¹ | – | – |
| Drosophila melanogaster glutamine synthetase 2 (DmGS2), wild type (enzyme, UniProt P20478 1-369, looked up, Glutamine synthetase 2, cytoplasmic (DmGS2), Drosophila melanogaster; full-length cDNA of mature DmGS2, GenBank X52759; residues numbered to 369; 367 residues of each monomer seen in the crystal; Decamer of two stacked pentamers in the crystal (with ADP); pentamer and decamer in solution by AUC; No removal of the tags is described; also called WT DmGS2; WT; copies: 10) MSARILEDSPNARINKTILDRYLSLPLQENIVQATYVWIDGTGEDLRCKDRTLDFIPQSPKELPVWNYDGSSCYQAEGSNSDTYLYPVAIYKDPFRRGNNILVMCDTYKFDGTPTDTNKRKTCLEVANKCAAEEPWFGIEQEYTFLDFDGHPLGWPKNGFPGPQGPYYCGVGANKVYARDIVDAHYRACLYAGIKVSGTNAEVMPAQWEFQVGPCEGISIGDDLWMARFLLHRISEEFGIVSTLDPKPMPGDWNGAGAHTNVSTKAMREDGGIRDIEKAVAKLSKCHERHIRAYDPKQGQDNARRLTGKHETSSINDFSAGVANRGCSIRIPRGVNDDGKGYFEDRRPSSNCDPYSVVEAILRTICLDE | – | 0.47 ± 0.03 mM | 4.6 µM/min | 0.0153 s⁻¹ | 32.7 M⁻¹ s⁻¹ | 43.1 ± 9.7 mM | 120 µM/min | 0.4 ± 0.0333 s⁻¹ | 9.67 ± 1.33 M⁻¹ s⁻¹ | 2.0 ± 0.4 mM | 64 µM/min | 5.9 ± 1.6 mM | 9.2 µM/min | 0.0307 ± 0.00133 s⁻¹ | 5.67 ± 1.33 M⁻¹ s⁻¹ | 5 | 10 |
| DmGS2 (Drosophila melanogaster; E311A) (protein, 367 residues per monomer modelled) MSARILEDSPNARINKTILDRYLSLPLQENIVQATYVWIDGTGEDLRCKDRTLDFIPQSPKELPVWNYDGSSCYQAEGSNSDTYLYPVAIYKDPFRRGNNILVMCDTYKFDGTPTDTNKRKTCLEVANKCAAEEPWFGIEQEYTFLDFDGHPLGWPKNGFPGPQGPYYCGVGANKVYARDIVDAHYRACLYAGIKVSGTNAEVMPAQWEFQVGPCEGISIGDDLWMARFLLHRISEEFGIVSTLDPKPMPGDWNGAGAHTNVSTKAMREDGGIRDIEKAVAKLSKCHERHIRAYDPKQGQDNARRLTGKHATSSINDFSAGVANRGCSIRIPRGVNDDGKGYFEDRRPSSNCDPYSVVEAILRTICLDE | – | – | – | – | – | – | – | – | – | – | – | 26.2 ± 2.2 mM | 5.5 µM/min | 0.0183 ± 0.00133 s⁻¹ | 0.7 ± 0.00833 M⁻¹ s⁻¹ | – | – |

Reference: paper PMC7764910, “Structural Insight into the Contributions of the N-Terminus and Key Active-Site Residues to the Catalytic Efficiency of Glutamine Synthetase 2” (Biomolecules, 2020)
